Biological target: KSR1 in KSR1+/+ mouse embryo fibroblasts (cells that overexpress KSR1) (UniProt Q61097)
Assay: proximity ligation; fixed serum-starved KSR1+/+ MEFs, anti-KSR1 with anti-pERK or anti-ERK antibodies, Duolink; vehicle or 40 μM CGS9343B for 16 h, then vehicle or 100 ng/ml EGF for 5 min; spots per cell, vehicle set to 1

Sequence of KSR1 in KSR1+/+ mouse embryo fibroblasts (cells that overexpress KSR1) (Q61097 whole entry): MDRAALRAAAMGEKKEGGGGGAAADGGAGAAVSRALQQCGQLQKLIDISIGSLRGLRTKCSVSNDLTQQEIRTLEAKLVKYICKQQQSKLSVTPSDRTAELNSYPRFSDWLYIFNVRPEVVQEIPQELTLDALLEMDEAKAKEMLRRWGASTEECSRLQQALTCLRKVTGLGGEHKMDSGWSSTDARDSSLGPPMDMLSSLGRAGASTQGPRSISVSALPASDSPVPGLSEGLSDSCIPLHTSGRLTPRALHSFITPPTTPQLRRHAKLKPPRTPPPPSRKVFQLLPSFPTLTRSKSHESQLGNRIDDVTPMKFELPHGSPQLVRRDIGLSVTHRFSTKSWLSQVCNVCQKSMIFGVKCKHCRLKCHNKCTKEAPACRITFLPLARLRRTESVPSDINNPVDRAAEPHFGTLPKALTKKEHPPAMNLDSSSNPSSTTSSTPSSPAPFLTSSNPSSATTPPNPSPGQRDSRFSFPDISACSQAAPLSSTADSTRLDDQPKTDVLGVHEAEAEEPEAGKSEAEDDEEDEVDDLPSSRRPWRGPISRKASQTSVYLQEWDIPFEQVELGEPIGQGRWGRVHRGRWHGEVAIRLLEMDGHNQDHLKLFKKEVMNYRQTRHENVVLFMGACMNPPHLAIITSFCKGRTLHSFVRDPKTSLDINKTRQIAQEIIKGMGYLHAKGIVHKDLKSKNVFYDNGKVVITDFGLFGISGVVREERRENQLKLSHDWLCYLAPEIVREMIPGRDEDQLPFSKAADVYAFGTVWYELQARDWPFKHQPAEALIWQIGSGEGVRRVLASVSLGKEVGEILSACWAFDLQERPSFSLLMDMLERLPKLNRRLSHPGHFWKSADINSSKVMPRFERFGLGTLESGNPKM

Substance | fold change of PLA spots per cell, EGF against vehicle [fold]
ERK (extracellular signal-regulated kinase), total ERK (from UniProt P63085 1-358) (natural protein) | 4.36
pERK (phosphorylated ERK) (from UniProt P63085 1-358) (natural protein) | 6.2
